Experimental data published in US20230184787.

Target: T1, full-length human calprotectin (heterodimer of S100A9 and S100A8), P06702
T1 chain 1: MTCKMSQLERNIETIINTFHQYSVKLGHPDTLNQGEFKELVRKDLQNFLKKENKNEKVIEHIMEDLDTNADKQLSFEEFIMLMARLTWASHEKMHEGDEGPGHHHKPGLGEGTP
T1 chain 2: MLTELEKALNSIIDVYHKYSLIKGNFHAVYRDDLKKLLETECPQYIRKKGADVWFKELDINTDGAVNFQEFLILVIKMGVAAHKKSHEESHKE

B1: human neutrophil elastase (protein)
chain: IVGGRRARPHAWPFMVSLQLRGGHFCGATLIAPNFVMSAAHCVANVNVRAVRVVLGAHNLSRREPTRQVFAVQRIFENGYDPVNLLNDIVILQLNGSATINANVQVAQLPAQGRRLGNGVQCLAMGWGLLGRNRGIASVLQELNVTVVTSLCRRSNVCTLVRGRQAGVCFGDSGSPLVCNGLIHGIASFVRGGCASGLYPDAFAPVAQFVNWIDSIIQ
- calprotectin fragments identified by non-targeted mass spectrometry after in vitro cleavage: several neo-epitope containing calprotectin fragments were generated by HNE, from both the S100A9 and S100A8 proteins
